Experimental data as given in paper PMC8342987.
Like-named read-outs stand apart in the source and are kept apart here.

Substance	other (ubiquitination at K375)	other (ubiquitination at K517)	other (phosphorylation at Y525)	other (phosphorylation at Y526)
SYK: SYK (K375R, K517R)	changes	changes		
SYK: SYK (Y525F, Y526F)			no change	no change
